# How the values were obtained:
# [1] = target: CD56 on the surface of human neuroblastoma cells (human) (UniProt P13591); experiment: flow cytometry, isotype control staining of Kelly cells
# [2] = target: CD56 on the surface of human neuroblastoma cells (human) (UniProt P13591); experiment: flow cytometry, isotype control staining of SKNAS cells
# [3] = target: CD56 on the surface of human neuroblastoma cells (human) (UniProt P13591); experiment: flow cytometry, MY31 staining of Kelly cells, untreated
# [4] = target: CD56 on the surface of human neuroblastoma cells (human) (UniProt P13591); experiment: flow cytometry, MY31 staining of SKNAS cells, untreated
# [5] = target: CD56 on the surface of human neuroblastoma cells (human) (UniProt P13591); experiment: flow cytometry, MY31 staining of Kelly cells after overnight treatment with 25 nM control IgG
# [6] = target: CD56 on the surface of human neuroblastoma cells (human) (UniProt P13591); experiment: flow cytometry, MY31 staining of SKNAS cells after overnight treatment with 25 nM control IgG
# [7] = target: CD56 on the surface of human neuroblastoma cells (human) (UniProt P13591); experiment: flow cytometry, MY31 staining of Kelly cells after overnight treatment with 25 nM m906 (remaining surface CD56)
# [8] = target: CD56 on the surface of human neuroblastoma cells (human) (UniProt P13591); experiment: flow cytometry, MY31 staining of Kelly cells after overnight treatment with 50 nM m906 (remaining surface CD56)
# [9] = target: CD56 on the surface of human neuroblastoma cells (human) (UniProt P13591); experiment: flow cytometry, MY31 staining of SKNAS cells after overnight treatment with 25 nM m906 (remaining surface CD56)
# [10] = target: CD56 on the surface of human neuroblastoma cells (human) (UniProt P13591); experiment: flow cytometry, MY31 staining of SKNAS cells after overnight treatment with 50 nM m906 (remaining surface CD56)
# [11] = target: CD56 on the surface of human neuroblastoma cells (human) (UniProt P13591); experiment: flow cytometry, MY31 staining of Kelly cells after overnight treatment with 12.5 nM m906 (remaining surface CD56)
# [12] = target: CD56 on the surface of human neuroblastoma cells (human) (UniProt P13591); experiment: flow cytometry, MY31 staining of SKNAS cells after overnight treatment with 12.5 nM m906 (remaining surface CD56)
Geometric Mean [1],Geometric Mean [2],Geometric Mean [3],Geometric Mean [4],Geometric Mean [5],Geometric Mean [6],Geometric Mean [7],Geometric Mean [8],Geometric Mean [9],Geometric Mean [10],Geometric Mean [11],Geometric Mean [12],Substance
4710,10700,–,–,–,–,–,–,–,–,–,–,PE Isotype Control (antibody)
–,–,53700,12500,63700,13300,6420,6030,10600,10300,7150,10200,anti-CD56 antibody MY31
